Columns and labels:
[1] = target: Praluent (IgG1 monoclonal antibody); test: BLI, biotinylated ligand on sensor; 'Binding affinity (nM)'
[2] = target: Dupixent (IgG4 monoclonal antibody); test: as above
[3] = target: Ajovy (IgG2 monoclonal antibody); test: as above
[4] = target: Tremfya Fab with a lambda light chain and binding specificity for IL23 (from the monoclonal antibody guselkumab); test: BLI (ForteBio), biotinylated ligand on sensor, 1:1 fit
[5] = target: dimeric human IgG-lambda (Southern Biotech, Birmingham AL); test: as above
[6] = target: Herceptin Fab with a kappa light chain and binding specificity for Her2/neu (from the monoclonal antibody trastuzumab); test: as above
[7] = target: Tremfya Fab with a lambda light chain and binding specificity for IL23 (from the monoclonal antibody guselkumab); test: BLI (ForteBio), biotinylated ligand on sensor, as in Example 2
[8] = target: dimeric human IgG-lambda (Southern Biotech, Birmingham AL); test: as above
[9] = target: Herceptin Fab with a kappa light chain and binding specificity for Her2/neu (from the monoclonal antibody trastuzumab); test: as above

B1: affinity ligand SEQ ID NO: 156 (designed binder)
chain: MAWAEFRQRLAAIRTRLEALGGSEAELAAFEREIAAFESELQAYAGAGNPEVEALRREAAAIRDELQAYRHNDEAERWYDLGAAYAARGDYDRAIEYYQRALEHDPNDAWAWWELGVAYAARGDYDRAIEYYQRALELDTNNAVAWARLGIAYAARGDYDRAIEYYQRALELDPNNEVARGALEYARRARRHHHHHH
modifications: biotinylated (AviTag system)
Question: With B1 as the binder, how does the Kd [1] read?
Answer: < 1 nM

Question: What about the Kd [2] of the same binder?
Answer: 7 nM

Question: What about the Kd [3] of the same binder?
Answer: 224 nM

B2: affinity ligand SEQ ID NO: 161 (designed binder)
chain: MAWAEFRQRLAAIRTRLEALGGSEAELAAFEREIAAFESELQAYAGAGNPEVEALRREAAAIRDELQAYRHNDEAERWYDLGAAYAARGDYDRAIEYYQRALELDPNDAWAWWELGVAYAARGDYDRAIEYYQRALELDLNNAVAWARLGIAYAARGDYDRAIEYYQRALELDPNNEVARDALEYARRARRHHHHHH
modifications: biotinylated (AviTag system)
Question: Which results are given for B2?
Answer: Kd [1]: < 1 nM; Kd [2]: 31 nM; Kd [3]: 654 nM

B3: affinity ligand SEQ ID NO: 159 (designed binder)
chain: MGHHHHHHDEAERWYDLGAAYAARGDYDRAIEYYQRALEHDPNDAWAWWELGVAYAARGDYDRAIEYYQRALELDTNNAVAWARLGIAYAARGDYDRAIEYYQRALELDPNNEVARGALEYARRARRC
modifications: biotinylated (AviTag system)
Question: How did the Kd [1] turn out when B3 was run?
Answer: < 1 nM

Question: And the Kd [2]?
Answer: 9 nM

Question: What about the Kd [3] of the same binder?
Answer: 436 nM

B4: affinity ligand SEQ ID NO: 160 (designed binder)
chain: MGHHHHHHDEAERWYDLGAAYAARGDYDRAIEYYQRALELDPNDAWAWWELGVAYAARGDYDRAIEYYQRALELDLNNAVAWARLGIAYAARGDYDRAIEYYQRALELDPNNEVARDALEYARRARRC
modifications: biotinylated (AviTag system)
Question: For B4, which Kd [1] is on record?
Answer: < 1 nM

Question: What about the Kd [2] of the same binder?
Answer: 24 nM

Question: And the Kd [3]?
Answer: 543 nM

B5: affinity ligand SEQ ID NO: 157 (designed binder)
chain: MGLAEAAAREAAARAADEAERWYDLGAAYAARGDYDRAIEYYQRALEHDPNDAWAWWELGVAYAARGDYDRAIEYYQRALELDTNNAVAWARLGIAYAARGDYDRAIEYYQRALELDPNNEVARGALEYARRARRHHHHHH
modifications: biotinylated (AviTag system)
Question: Which Kd [1] does the source give for B5 here?
Answer: < 1 nM

Question: And the Kd [2]?
Answer: 8 nM

Question: What about the Kd [3] of the same binder?
Answer: 270 nM

B6: affinity ligand SEQ ID NO: 162 (designed binder)
chain: MGLAEAAAREAAARAADEAERWYDLGAAYAARGDYDRAIEYYQRALELDPNDAWAWWELGVAYAARGDYDRAIEYYQRALELDLNNAVAWARLGIAYAARGDYDRAIEYYQRALELDPNNEVARDALEYARRARRHHHHHH
modifications: biotinylated (AviTag system)
Question: Which results are given for B6?
Answer: Kd [1]: < 1 nM; Kd [2]: 25 nM; Kd [3]: 665 nM

B7: affinity ligand SEQ ID NO: 155 (designed binder)
chain: MGDEAERWYDLGAAYAARGDYDRAIEYYQRALEHDPNDAWAWWELGVAYAARGDYDRAIEYYQRALELDTNNAVAWARLGIAYAARGDYDRAIEYYQRALELDPNNEVARGALEYARRARRCHHHHHH
modifications: biotinylated (AviTag system)
Question: With B7 as the binder, how does the Kd [1] read?
Answer: < 1 nM

Question: What about the Kd [2] of the same binder?
Answer: 32 nM

Question: What about the Kd [3] of the same binder?
Answer: 117 nM

B8: affinity ligand SEQ ID NO: 158 (designed binder)
chain: MGDEAERWYDLGAAYAARGDYDRAIEYYQRALELDPNDAWAWWELGVAYAARGDYDRAIEYYQRALELDLNNAVAWARLGIAYAARGDYDRAIEYYQRALELDPNNEVARDALEYARRARRCHHHHHH
modifications: biotinylated (AviTag system)
Question: Which results are given for B8?
Answer: Kd [1]: < 1 nM; Kd [2]: 176 nM; Kd [3]: 282 nM

B9: affinity ligand SEQ ID NO: 89 (designed binder)
chain: MGGGGSAAAGDEAQHWENQGAAYAARGDYDRAIEYYGRALELDPNNAWAWWELGVAYAARGDYDRAIEYYERALELDPDDATTWSRLGHAYAARGDYDRAIEYYERALELDPEDETARYLLEHARRARQGQAGQGGGSGLNDIFEAQKIEWHECHHHHHH
modifications: biotinylated (AviTag system)
Question: How did the Kd [4] turn out when B9 was run?
Answer: 8 nM

Question: What about the Kd [5] of the same binder?
Answer: < 1 nM

Question: What about the Kd [6] of the same binder?
Answer: 41 nM

Question: And the Kd [7]?
Answer: 8 nM

Question: And the Kd [8]?
Answer: < 1 nM

Question: What about the Kd [9] of the same binder?
Answer: 41 nM

B10: affinity ligand SEQ ID NO: 92 (designed binder)
chain: MGGGGSAAAGDEAQRWENQGAAYAARGDYDRAIEYYERALELEPNNAWAWWELGVAYAARGDYDRAIEYYERALELDPDDATAWSRLGHAYAARGDYDRAIGYYERALELDPENETARYLLEHARRARQGQAGQGGGSGLNDIFEAQKIEWHECHHHHHH
modifications: biotinylated (AviTag system)
Question: What does the source list for B10?
Answer: Kd [4]: 8 nM; Kd [5]: < 1 nM; Kd [6]: 28 nM; Kd [7]: 8 nM; Kd [8]: < 1 nM; Kd [9]: 28 nM

B11: affinity ligand SEQ ID NO: 90 (designed binder)
chain: MGGGGSAAAGDEAQCWENQGAAYAARGDYDRAIEYYERALELDPNNAWAWWELGVAYAARGDYDRAIEYYERALELDPDDATTWSRLGHAYAARGDYDRAIEYYVRALELDPEDETARYLLEHARRARQGQAGQGGGSGLNDIFEAQKIEWHECHHHHHH
modifications: biotinylated (AviTag system)
Question: What does the source list for B11?
Answer: Kd [4]: 12 nM; Kd [5]: < 1 nM; Kd [6]: 51 nM; Kd [7]: 12 nM; Kd [8]: < 1 nM; Kd [9]: 51 nM

B12: affinity ligand SEQ ID NO: 41 (designed binder)
chain: MAQAAAGDEAQRWETLGAAYAARGDYDRAIEYYQRALELDPNNAWAWWELGVAYAARGDYDRAIEYYQRALELDPDDAAAWRRLGHAYAARGDYDRAIEYYERALELDPEDELARRILEDARRARQGQAGQGGGSGLNDIFEAQKIEWHECHHHHHH
modifications: biotinylated (AviTag system)
Question: Which Kd [7] does the source give for B12 here?
Answer: 24 nM

Question: What about the Kd [8] of the same binder?
Answer: 3 nM

Question: What about the Kd [9] of the same binder?
Answer: 15 nM

Reference: patent US20250059258A1
